Biological target: the molecule itself
Test: SDS-PAGE (SDS-resistant oligomers); whole-cell lysates of HEK293 cells on SDS-PAGE without urea; immunoblot with anti-HA or anti-AKAP12; cells also treated with isoproterenol (10 uM, 0, 5, 30 min), KT5720, PD98059 or Rolipram (45 min)

Protein	stoichiometry N
HA-tagged full-length AKAP12 (1-1782) (natural protein, human, UniProt Q02952 1-1782, looked up, AKAP12, human, full length (1-1782); also called HA-AKAP12; HA-tagged AKAP12; source: HEK293, transfected (pcDNA3.1), in whole-cell lysate) MGAGSSTEQRSPEQPPEGSSTPAEPEPSGGGPSAEAAPDTTADPAIAASDPATKLLQKNGQLSTINGVAEQDELSLQEGDLNGQKGALNGQGALNSQEEEEVIVTEVGQRDSEDVSKRDSDKEMATKSAVVHDITDDGQEETPEIIEQIPSSESNLEELTQPTESQANDIGFKKVFKFVGFKFTVKKDKTEKPDTVQLLTVKKDEGEGAAGAGDHKDPSLGAGEAASKESEPKQSTEKPEETLKREQSHAEISPPAESGQAVEECKEEGEEKQEKEPSKSAESPTSPVTSETGSTFKKFFTQGWAGWRKKTSFRKPKEDEVEASEKKKEQEPEKVDTEEDGKAEVASEKLTASEQAHPQEPAESAHEPRLSAEYEKVELPSEEQVSGSQGPSEEKPAPLATEVFDEKIEVHQEEVVAEVHVSTVEERTEEQKTEVEETAGSVPAEELVEMDAEPQEAEPAKELVKLKETCVSGEDPTQGADLSPDEKVLSKPPEGVVSEVEMLSSQERMKVQGSPLKKLFTSTGLKKLSGKKQKGKRGGGDEESGEHTQVPADSPDSQEEQKGESSASSPEEPEEITCLEKGLAEVQQDGEAEEGATSDGEKKREGVTPWASFKKMVTPKKRVRRPSESDKEDELDKVKSATLSSTESTASEMQEEMKGSVEEPKPEEPKRKVDTSVSWEALICVGSSKKRARRGSSSDEEGGPKAMGGDHQKADEAGKDKETGTDGILAGSQEHDPGQGSSSPEQAGSPTEGEGVSTWESFKRLVTPRKKSKSKLEEKSEDSIAGSGVEHSTPDTEPGKEESWVSIKKFIPGRRKKRPDGKQEQAPVEDAGPTGANEDDSDVPAVVPLSEYDAVEREKMEAQQAQKSAEQPEQKAATEVSKELSESQVHMMAAAVADGTRAATIIEERSPSWISASVTEPLEQVEAEAALLTEEVLEREVIAEEEPPTVTEPLPENREARGDTVVSEAELTPEAVTAAETAGPLGAEEGTEASAAEETTEMVSAVSQLTDSPDTTEEATPVQEVEGGVPDIEEQERRTQEVLQAVAEKVKEESQLPGTGGPEDVLQPVQRAEAERPEEQAEASGLKKETDVVLKVDAQEAKTEPFTQGKVVGQTTPESFEKAPQVTESIESSELVTTCQAETLAGVKSQEMVMEQAIPPDSVETPTDSETDGSTPVADFDAPGTTQKDEIVEIHEENEVASGTQSGGTEAEAVPAQKERPPAPSSFVFQEETKEQSKMEDTLEHTDKEVSVETVSILSKTEGTQEADQYADEKTKDVPFFEGLEGSIDTGITVSREKVTEVALKGEGTEEAECKKDDALELQSHAKSPPSPVEREMVVQVEREKTEAEPTHVNEEKLEHETAVTVSEEVSKQLLQTVNVPIIDGAKEVSSLEGSPPPCLGQEEAVCTKIQVQSSEASFTLTAAAEEEKVLGETANILETGETLEPAGAHLVLEEKSSEKNEDFAAHPGEDAVPTGPDCQAKSTPVIVSATTKKGLSSDLEGEKTTSLKWKSDEVDEQVACQEVKVSVAIEDLEPENGILELETKSSKLVQNIIQTAVDQFVRTEETATEMLTSELQTQAHVIKADSQDAGQETEKEGEEPQASAQDETPITSAKEESESTAVGQAHSDISKDMSEASEKTMTVEVEGSTVNDQQLEEVVLPSEEEGGGAGTKSVPEDDGHALLAERIEKSLVEPKEDEKGDDVDDPENQNSALADTDASGGLTKESPDTNGPKQKEKEDAQEVELQEGKVHSESDKAITPQAQEELQKQERESAKSELTES	2
full-length endogenous AKAP12 (natural protein, human (endogenous in HEK293), UniProt Q02952 1-1782, looked up, AKAP12, endogenous in HEK293 cells, detected with anti-AKAP12 antibody; also called native AKAP12; endogenously expressed AKAP12; source: endogenous, HEK293 whole-cell lysate) MGAGSSTEQRSPEQPPEGSSTPAEPEPSGGGPSAEAAPDTTADPAIAASDPATKLLQKNGQLSTINGVAEQDELSLQEGDLNGQKGALNGQGALNSQEEEEVIVTEVGQRDSEDVSKRDSDKEMATKSAVVHDITDDGQEETPEIIEQIPSSESNLEELTQPTESQANDIGFKKVFKFVGFKFTVKKDKTEKPDTVQLLTVKKDEGEGAAGAGDHKDPSLGAGEAASKESEPKQSTEKPEETLKREQSHAEISPPAESGQAVEECKEEGEEKQEKEPSKSAESPTSPVTSETGSTFKKFFTQGWAGWRKKTSFRKPKEDEVEASEKKKEQEPEKVDTEEDGKAEVASEKLTASEQAHPQEPAESAHEPRLSAEYEKVELPSEEQVSGSQGPSEEKPAPLATEVFDEKIEVHQEEVVAEVHVSTVEERTEEQKTEVEETAGSVPAEELVEMDAEPQEAEPAKELVKLKETCVSGEDPTQGADLSPDEKVLSKPPEGVVSEVEMLSSQERMKVQGSPLKKLFTSTGLKKLSGKKQKGKRGGGDEESGEHTQVPADSPDSQEEQKGESSASSPEEPEEITCLEKGLAEVQQDGEAEEGATSDGEKKREGVTPWASFKKMVTPKKRVRRPSESDKEDELDKVKSATLSSTESTASEMQEEMKGSVEEPKPEEPKRKVDTSVSWEALICVGSSKKRARRGSSSDEEGGPKAMGGDHQKADEAGKDKETGTDGILAGSQEHDPGQGSSSPEQAGSPTEGEGVSTWESFKRLVTPRKKSKSKLEEKSEDSIAGSGVEHSTPDTEPGKEESWVSIKKFIPGRRKKRPDGKQEQAPVEDAGPTGANEDDSDVPAVVPLSEYDAVEREKMEAQQAQKSAEQPEQKAATEVSKELSESQVHMMAAAVADGTRAATIIEERSPSWISASVTEPLEQVEAEAALLTEEVLEREVIAEEEPPTVTEPLPENREARGDTVVSEAELTPEAVTAAETAGPLGAEEGTEASAAEETTEMVSAVSQLTDSPDTTEEATPVQEVEGGVPDIEEQERRTQEVLQAVAEKVKEESQLPGTGGPEDVLQPVQRAEAERPEEQAEASGLKKETDVVLKVDAQEAKTEPFTQGKVVGQTTPESFEKAPQVTESIESSELVTTCQAETLAGVKSQEMVMEQAIPPDSVETPTDSETDGSTPVADFDAPGTTQKDEIVEIHEENEVASGTQSGGTEAEAVPAQKERPPAPSSFVFQEETKEQSKMEDTLEHTDKEVSVETVSILSKTEGTQEADQYADEKTKDVPFFEGLEGSIDTGITVSREKVTEVALKGEGTEEAECKKDDALELQSHAKSPPSPVEREMVVQVEREKTEAEPTHVNEEKLEHETAVTVSEEVSKQLLQTVNVPIIDGAKEVSSLEGSPPPCLGQEEAVCTKIQVQSSEASFTLTAAAEEEKVLGETANILETGETLEPAGAHLVLEEKSSEKNEDFAAHPGEDAVPTGPDCQAKSTPVIVSATTKKGLSSDLEGEKTTSLKWKSDEVDEQVACQEVKVSVAIEDLEPENGILELETKSSKLVQNIIQTAVDQFVRTEETATEMLTSELQTQAHVIKADSQDAGQETEKEGEEPQASAQDETPITSAKEESESTAVGQAHSDISKDMSEASEKTMTVEVEGSTVNDQQLEEVVLPSEEEGGGAGTKSVPEDDGHALLAERIEKSLVEPKEDEKGDDVDDPENQNSALADTDASGGLTKESPDTNGPKQKEKEDAQEVELQEGKVHSESDKAITPQAQEELQKQERESAKSELTES	2
HA-AKAP12 (840-1782) (domain or fragment, human, UniProt Q02952 840-1782, looked up, AKAP12, human, C-terminal fragment, residues 840-1782; also called AKAP12 C-terminal (840-1782) fragment; source: HEK293, transfected (pcDNA3.1), in whole-cell lysate) DSDVPAVVPLSEYDAVEREKMEAQQAQKSAEQPEQKAATEVSKELSESQVHMMAAAVADGTRAATIIEERSPSWISASVTEPLEQVEAEAALLTEEVLEREVIAEEEPPTVTEPLPENREARGDTVVSEAELTPEAVTAAETAGPLGAEEGTEASAAEETTEMVSAVSQLTDSPDTTEEATPVQEVEGGVPDIEEQERRTQEVLQAVAEKVKEESQLPGTGGPEDVLQPVQRAEAERPEEQAEASGLKKETDVVLKVDAQEAKTEPFTQGKVVGQTTPESFEKAPQVTESIESSELVTTCQAETLAGVKSQEMVMEQAIPPDSVETPTDSETDGSTPVADFDAPGTTQKDEIVEIHEENEVASGTQSGGTEAEAVPAQKERPPAPSSFVFQEETKEQSKMEDTLEHTDKEVSVETVSILSKTEGTQEADQYADEKTKDVPFFEGLEGSIDTGITVSREKVTEVALKGEGTEEAECKKDDALELQSHAKSPPSPVEREMVVQVEREKTEAEPTHVNEEKLEHETAVTVSEEVSKQLLQTVNVPIIDGAKEVSSLEGSPPPCLGQEEAVCTKIQVQSSEASFTLTAAAEEEKVLGETANILETGETLEPAGAHLVLEEKSSEKNEDFAAHPGEDAVPTGPDCQAKSTPVIVSATTKKGLSSDLEGEKTTSLKWKSDEVDEQVACQEVKVSVAIEDLEPENGILELETKSSKLVQNIIQTAVDQFVRTEETATEMLTSELQTQAHVIKADSQDAGQETEKEGEEPQASAQDETPITSAKEESESTAVGQAHSDISKDMSEASEKTMTVEVEGSTVNDQQLEEVVLPSEEEGGGAGTKSVPEDDGHALLAERIEKSLVEPKEDEKGDDVDDPENQNSALADTDASGGLTKESPDTNGPKQKEKEDAQEVELQEGKVHSESDKAITPQAQEELQKQERESAKSELTES	2
HA-AKAP12 (1-938) (domain or fragment, human, UniProt Q02952 1-938, looked up, AKAP12, human, N-terminal fragment, residues 1-938; also called AKAP12 N-terminal (1-938) fragment; source: HEK293, transfected (pcDNA3.1), in whole-cell lysate) MGAGSSTEQRSPEQPPEGSSTPAEPEPSGGGPSAEAAPDTTADPAIAASDPATKLLQKNGQLSTINGVAEQDELSLQEGDLNGQKGALNGQGALNSQEEEEVIVTEVGQRDSEDVSKRDSDKEMATKSAVVHDITDDGQEETPEIIEQIPSSESNLEELTQPTESQANDIGFKKVFKFVGFKFTVKKDKTEKPDTVQLLTVKKDEGEGAAGAGDHKDPSLGAGEAASKESEPKQSTEKPEETLKREQSHAEISPPAESGQAVEECKEEGEEKQEKEPSKSAESPTSPVTSETGSTFKKFFTQGWAGWRKKTSFRKPKEDEVEASEKKKEQEPEKVDTEEDGKAEVASEKLTASEQAHPQEPAESAHEPRLSAEYEKVELPSEEQVSGSQGPSEEKPAPLATEVFDEKIEVHQEEVVAEVHVSTVEERTEEQKTEVEETAGSVPAEELVEMDAEPQEAEPAKELVKLKETCVSGEDPTQGADLSPDEKVLSKPPEGVVSEVEMLSSQERMKVQGSPLKKLFTSTGLKKLSGKKQKGKRGGGDEESGEHTQVPADSPDSQEEQKGESSASSPEEPEEITCLEKGLAEVQQDGEAEEGATSDGEKKREGVTPWASFKKMVTPKKRVRRPSESDKEDELDKVKSATLSSTESTASEMQEEMKGSVEEPKPEEPKRKVDTSVSWEALICVGSSKKRARRGSSSDEEGGPKAMGGDHQKADEAGKDKETGTDGILAGSQEHDPGQGSSSPEQAGSPTEGEGVSTWESFKRLVTPRKKSKSKLEEKSEDSIAGSGVEHSTPDTEPGKEESWVSIKKFIPGRRKKRPDGKQEQAPVEDAGPTGANEDDSDVPAVVPLSEYDAVEREKMEAQQAQKSAEQPEQKAATEVSKELSESQVHMMAAAVADGTRAATIIEERSPSWISASVTEPLEQVEAEAALLTEEVLE	2

From paper PMC3113324, “AKAP5 and AKAP12 Form Homo-oligomers” (Journal of Molecular Signaling, 2011)
